In IntAct's records for PubMed 15143060:

Molecular target: gga1_human GGA1 (UniProt Q9UJY5)
Sequence (Q9UJY5 whole entry): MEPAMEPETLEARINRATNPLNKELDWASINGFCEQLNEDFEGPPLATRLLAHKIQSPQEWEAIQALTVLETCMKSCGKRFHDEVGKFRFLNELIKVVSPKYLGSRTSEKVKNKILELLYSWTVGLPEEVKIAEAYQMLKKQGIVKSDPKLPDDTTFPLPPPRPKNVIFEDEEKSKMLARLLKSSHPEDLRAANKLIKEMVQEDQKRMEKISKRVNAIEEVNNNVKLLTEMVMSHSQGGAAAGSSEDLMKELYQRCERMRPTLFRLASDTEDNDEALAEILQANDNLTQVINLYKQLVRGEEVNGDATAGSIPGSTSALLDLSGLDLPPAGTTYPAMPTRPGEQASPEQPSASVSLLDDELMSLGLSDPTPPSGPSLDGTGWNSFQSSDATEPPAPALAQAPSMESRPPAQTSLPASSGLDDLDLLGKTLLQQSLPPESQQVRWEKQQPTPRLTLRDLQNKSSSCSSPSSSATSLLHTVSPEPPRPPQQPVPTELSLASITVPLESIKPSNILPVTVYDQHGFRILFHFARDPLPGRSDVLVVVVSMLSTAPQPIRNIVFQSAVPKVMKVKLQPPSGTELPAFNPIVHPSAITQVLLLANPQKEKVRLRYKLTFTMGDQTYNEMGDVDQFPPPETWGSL

effect of a mutation on the interaction: decreasing interaction
Substance: ADP-ribosylation factor 1 (Homo sapiens), P84077 T32N
